Drawing on a protein production outcome set (Wang et al. 2014), this text covers protein production for 21 sequences.

This data set can be described thus: label from the status in PepcDB records.
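Also: failed if final PepcDB status was selected cloned or expressed and not failed if soluble or beyond.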

For the sequence “MNKTFVGFIFLLFLVGGVVSCQRSSSPYPYSLRYADSLMEISPERTLAYLRKLDVSTYSAGDRAYFSLLFTQATDKNMLSLLPCDSLIDTALDYYIKKDGVNWAKAWLYKGRIQKKMNMTEQALKSCFTALQGVEGNTGEELKLKGMLYEDMGSIYLHQSLYQKAFDAFYRSYQCDSLLNDHRLVMYPLSNMGWVRVIQGKTVEAFYYLNQSIQLALRLNDSAFVSDIYERMSLNCENVDSAFLYAHLSHQYLTKDGDSISLWLTFGDLYLDKQELDSAEYYLKRILDTADFKRKILASYSLAEVEKIRGNYQRAFEYQSYYGDNIDSIFLLNKASDIERLAYKYDSEAKVVKEKEKQRFLIQQLCYGGVLFLLVIVVIFQRVYRRRQIARLLYEQRITYLNEKTALSQLQIERLEVQISALKQSGMEREQEIDLKQAELCCVIDEKARLRNCLFMETSIFKHIRELSTQPRLGQNGTKGSPKVLLMKEQEQLKNILFGIYDDYIRYLKGTYPKITDNDCIYCCLKLCEFDDQTIAYCFGNVSKQIVAQRRLRLKKKMAEAN”, the protein production entry is “failed”. To “MNKTLIAAAVAGIVLLASNAQAQTVPEGYQLQQVLMMSRHNLRAPLANNGSVLEQSTPNKWPEWDVPGGQLTTKGGVLEVYMGHYMREWLAEQGMVKSGECPPPYTVYAYANSLQRTVATAQFFITGAFPGCDIPVHHQEKMGTMDPTFNPVITDDSAAFSEQAVAAMEKELSKLQLTDSYQLLEKIVNYKDSPACKEKQQCSLVDGKNTFSAKYQQEPGVSGPLKVGNSLVDAFTLQYYEGFPMDQVAWGEIKSDQQWKVLSKLKNGYQDSLFTSPEVARNVAKPLVSYIDKALVTDRTSAPKITVLVGHDSNIASLLTALDFKPYQLHDQNERTPIGGKIVFQRWHDSKANRDLMKIEYVYQSAEQLRNADALTLQAPAQRVTLELSGCPIDADGFCPMDKFDSVLNEAVK” belongs “not failed”; to “MNKYFPLAKYKKEKMMFMKLLEGCYKVERLYIYSKRLCKQMEPKSQEEYNIARKQIKKTFDEGWTEADCGGRESCILEIPFVFWSSPNKSNCRRQPKRSYGKKLLYIPLNDLKDDIPYPNSSSEAGKVWKPQ”, “failed”.

With “MNLANIVQRGWEALGAGDFDTLVTDYVEKMIFIMPGQADVLKGRQAFRSALDNLGEILPPGFEITGLRQLEGENEIVSIVEWKSDKMIASQLSVLFKFEGDQIYEERWFVDTEQWKSVF”, the protein production result is “not failed”. Then “MNLDRRGLILLVILTLAWGINWPIMKLGVAHFPAMAFRLLCMAGGLVALGLALTFRGDSLRVPRAAWGTVLKLAIPNMVIWHLFAICAVKMLSSGRAAILGYTMPIWAVVWGLVIFRDRIALSAWIGIGCALAGTVLLLSGEIAALTGSPAGTLLMLVAAAGWGFGTQLMKRTHTDVPIGAMTFWMLAITLPFLGAGTLLFESGWRMPTAIEWGAIAYNAVVVFAYCHLVWFALARSLPPVVSSLSIMFIPVVGVFSGMWFLGETPHWQDYVAIVLMFAALSSVMLAPLLRRRM”, with “failed”; and “MNLETIPSGELTVSNQRSISRLVAQAGQMLLAHGAESTLVCDIMRRIGLACGVHEVAVALSANALVVTTVMDGHCITTTRSCADRGINMRVITQIQRICIMMERGLLDAAMAQKKLNTISPERYNRWLVVLMIGLSCAAFSHLAGGDWGVFIMTFLASAGGMIVRQEIGHRHFNPLLNFAATAFVTTLISAQAEIYQIGNLPTVAMASSVLMLVPGFPLINSVADMLKGHINMGIARFVMASLLTLATCLGIVAAMSVTGIWGWAI”, with “failed”; and “MNLFGQKDRGNHVSGVDRGKVIMYGLSTCVWCKKTKKLLTDLGVDFDYVYVDRLEGKEEEEAVEEVRRFNPSVSFPTTIINDEKAIVGFKEKEIRESLGF”, with “not failed”. Then “MNLFKKIIFGAAVMGLMAAGDASAAGKIVIDGSTTVGPIAKAFAAYFHKKTGIDVTVSESGSGNGAKSLINKTCDIADMSRPMEPKEIAAAKANGVNPVEHVVALDGLSMIVHPSNPVAKLTTAQIHDIYLGKITNWKQVGGPNAQIVFVQRESNSGTQECFEKLVMKDDKIAPAAETAASNGAVKSRVASTPNAIGFVGLGFVDKSVKPLIVNGVKPSIATVRNGSYVLHRPLFMYTNGQPKGDVAKFINLPKTPDGKRMISELGFVNK”, with “failed”. To “MNLGAAEEESAQEIHLPADINWEMLDKSKFFVLGAALFSGVSGALYPAVLMKTRQQVCHSQGSCIKTAFTLVRHEGLRGLYRGFGTSLMGTIPARALYMTALEVTKSNVGSAAVSLGLTEAKAAAVANAVGGLSAAMAAQLVWTPVDVVSQRLMVQGSAGLVNASRCNYVNGFDAFRKIVRADGPKGLYRGFGISILTYAPSNAVWWASYSVAQRMVWGGIGCYVCKKDEESGNNSTTMKPDSKTIMAVQGVSAAIAGSVSALITMPLDTIKTRLQVLDGEDSSNNGKRGPSIGQTVRNLVREGGWTACYRGLGPRCASMSMSATTMITTYEFLKRLSAKNHDGFYSKS” belongs “failed”; to “MNLIKTCGLCLLLSVALSGCVTAPTPPESDPQAEQAVLEVSFSEAVKAMKQGNFTEARTVFEQLARNYPDKAGPMANLGIIAFREGDADGAKEWFERARAVNPEHVQALNHLGVIARNAGEFDEAERYYRAALAADPDYAPAILNLAFLLDIYLGNPADAIELYERYQSAASEPHPRLEDWIFDAKNRI”, “failed”; to “MNLLNLFTYVIPIAICIILPIFIIVTHFQIKSLNKAVTSFNKGDRSNALEILSKLVKSPIKNVKANAYITRERIYFYSRDFELSLRDLLQAIKLRPKTINDVYSFALSYHILGEPERALKYFLRAVELQPNVGISYENLAWFYYLTGKYDKAIENFEKAISMGSTNSVYRSLGITYAKIGDYKKSEEYLKKALDAEPEKPSTHIYFSYLKRKTNDIKLAKEYALKAIELNKNNFDGYKNLAEVNLAEDDYDGFYKNLEIFLEKINFVTNGEDFNDEVYDKVKDNEKFKELIAKTKVIKFKDLGIEIDDKKILNGKFLV”, “failed”.

For the sequence “MNLNEYKLLTFFNMKYKRKSKEEFLIKYQHDNTFRIMSLCLIILFLGVMSASVAHAESYKFVTKWGSYGNGAGQFHYPRAIVATSSGYIYVADSGNNRVQEFNSNGKFINQWSSTNDVSLGSVNGVAIDSSGDVYVADTNNRIVKFDKNGNFITKFGSYGSGNVQFKNARDICLDSSGNIYVADTGNNRIQKLDNNGNYLVQWGSYGSSNGQFKNPIDVALDSLDNVYVADKDNHCIKKFDSNGNYLMQFGNSGNGDGQFNNIISVFVDSSGNIYVSDRGNTRIQKFDSDGNYLTHWGSYGTNDGQFKNPEDIGVDSSGNVYVADADNNRIQKFAPVYPPVTNFVSNVTTGYAPLAVKFTDTSTGTPFSWTWNFGDGTFSTVKNPTHTYSKAGKYTVKLTATNEGGNSTAAKTNYITVKTTTVKPVAIFSASPTSGKAPLKVTFTDKSTGSPTKWKWNFGDGSKSFLQNPSHKYSKAGKYTVSLTVKNDKGSNTVTKTNYLTVVAKPVAAFSASPTSGKAPLKVTFTDKSTGSPTKWKWNFGDGTTSAKQNPIHKYSKAGKYKVTLTVANAAGINTVTKTNYITVIAKPAAAFSASPTSGKAPLKVTFSDKSTGTPTKWKWTFGDGSKSFLQNPTHKYSKAGKYKVILTVTNTAGSNTVTKTNYITVVAKPVAAFSASPTSGKAPLKVTFSDKSTGTPTKWKWNFGDGATSIKQNPVHKYSNVGSYTVKLTVTNAAGSNTKTISNYIILKSK”, the protein production result was “failed”. To “MNLNQLDIIVSNVPQVCADLEHILDKKADYANDGFAQFTIGSHCLMLSQNHLVPLENFQSGIIIHIEVEDVDQNYKRLNELGIKVLHGPTVTDWGTESLLVQGPAGLVLDFYRMK” belongs “not failed”; to “MNLQHITILTLFIEGLLSFFSPCVLPILPVYIGILAGQGEEKQSGEIIWDRRKVFTNTFLFISGIAATFFILAFASSLISQFLQSHIQFLQNLGGILILIMGLVQVGLIKSHFFNREYSAKNKVYQAGQKVTPLIAFLMGFTFSFSWTPCIGPILASVFLYASTHQGIYSVLLILIYCLGFVIPFALIALFSQRVMSVFKKQKRFLKYTKLFSGILLILIGISILTGSFAKIAHLFN”, “failed”; to “MNLRAIKAILIKDLKEIRREKMVVFWIFVFPLMWVTLMGALWGGPGSPVTVDVGVVNPGGNISTLITEIMENSTINGTQLFNVKLFPNASLGIEALKHGSIKALVLFPEDFDINITSGLQGRVLVYFDKTDPQNYQIVSSIIRSFFSEVGREFRARKIEMMMQYIPTEYKEYLLATAEPIVLEEKIIHGESGRGIKFYVTSFIGIQFFFATMLMIGGSVLEEITKGTLRRIAASPTTPWDFLIGKSLSTLTTIIVSIIIGIGYARVVFGATLFPSLFGWAIIFTAAVFSMSLGLAIVMLTRSERSTPAVVNLVSMPLLFLAGIVIPESIMPEWARPIAHYFPLGRALKVLRLSDIYGRPPGELVGDFIYVLIWSVLMAMVAVASYAWAIRRID”, “failed”. Then “MNLTKVKGNTFFIKGGTNTGIYVFEDNTALMIDPGLCGSRPRRVNKVLDENNIQVRYIINTHGHDDHYGACNQFKEYYKDVCIMSSEYDKLYIENPELFSKYIVGGKSNVFMDNILKNKMLDDIKIDKSIEAGKFELNNEMFDIIEFQGHTPGSIAVLTKDNVIFVGDLLIGDEILSKYDFLFLYDIQEQINSLEKLKNIDFEYLVLGHGKQVISKEDSYKLIEKHLNALKKYLYQIRELLVEPKSLEILLKNIINNNNLSNNYKEYHFFKSSLVSVISYLVDLEEIGYILENGELLYYTKTK”, with “failed”; and “MNMDPLIYVAALLFTGLLAGLATGLLGVGGGFIIAPVLFFLMEAGGTPPDIAIRTAFGTSLAIILPTALSGAHSHYRRKCVDSRIGITMGVLGACGSVAGVFTASASPAYVLRAFFGVLLILVSAQLLLSSRISPSGFGRNAAFPLGFLAGFLSGLLGIGGGVVLVPLLVMVAGFDVLEAVGTSSLVIAFTAASGTISYIFTGPGGPFTVGYVNLLQFLLVIVMSVPSSRLGALIAHRVDVRYIRYIFIILLLFTGLKMLL”, with “failed”; and “MNMIRRLTALTLSLMLAGGPALAQTVVIVRHGEKVSPNGDPDLSDAGKARAQALAAALAGARVSTVLATPLKRTQQTAQPTADAAGLVIRTIALDGGVPAHAQRVAEVARQAPKDATVLIVGHSNTVGEIARALGDAAPSPVTDCDYDQMTIISLDAPTARTLHARYGAPTLPCPTN”, with “failed”. For the sequence “MNNKDLWIKEEIIWSEHKCIRFAAGGYEALIIPDVGGNVVELKDTNKGVTILRTPKKDLKFEDFKNRPQVYGLPVLFPPNRIDDGTFKLGDKTYKFPINEAKNNNYIHGFIKNSKWTVHKKKIDQDKALVEVVFDFTKENEAYKYFSHEFQFKLSYELSSKGLKQTTSVVNLSSEEMPLSVGYHSAFNVPFIEGSEDSNCRVKISIDKFWKQDSRNLPTGESFAPTGEQKEYLENGVAVASHPIESLFSLKDIDVNGKTFRGACIEDASKNTRVVYEMSSEYKYLVIWNDMGDKKYACIEPQTSIINSPNVKLDRSVSGFKTLKPNESWSGVCKLYIENM”, the protein production result is given as “not failed”.

As to “MNNLFVYCEIEEGIVADVSLELLTKGRSLANELNCQLEAVVAGTGLKEIEKQILPYGVDKLHVFDAEGLYPYTSLPHTSILVNLFKEEQPQICLMGATVIGRDLGPRVSSALTSGLTADCTSLEIGDHEDKKEGKVYKNLLYQIRPAFGGNIVATIVNPEHRPQMATVREGVMKKEIVSPAYQGEVIRHDVKKYVADTDYVVKVIERH”, the protein production result is “not failed”.

In the case of “MNNLIITTRQSPVRLLVDYVATTILWTLFALFIFLFAMDLLTGYYWQSEARSRLQFYFLLAVANAVVLIVWALYNKLRFQKQQHHAAYQYTPQEYAESLAIPDELYQQLQKSHRMSVHFTSQGQIKMVVSEKALVRA”, the protein production entry is “failed”.
